# Data taken from patent publication US10077303B2, “Anti-neurotensin antibodies and uses thereof” (INSERM (INSTITUT NATIONAL DE LA SANTÉ ET DE LA RECHERCHE …, priority 2014, dated 2018).
# B1: NTSp27-7.4: NTS neutralizing monoclonal antibody from hybridoma clone 7.4; VH SEQ ID NO:1, VL SEQ ID NO:5 (antibody, V domains shown)
# VH: DVKLVESGGGLVKLGGSLKLSCAASGFTFSGYYMSWVRQTPEKRLELVAAINNYGDNTNYPDTVKGRFSVSRDNAKNTLYLEMNSLKSEDTALYYCARLANYANQRGAMDYWGQGTSVTVSS
# VL: DIQMTHTTSSLSASLGDRVTISCRASQDIANYLNWYQQKPDGTVTLLIYYTSRLHSGVPSRFSGSGSGTDYSLTINNLDQEDIATYFCQQGYTLPPTFGGGTKLEIK
# modifications: Synthetic VH sequence; Synthetic VL sequence
# What was measured:
# A2780 cells = test: A2780 ovarian cancer tumor xenograft, cisplatin response; type: in vivo, NMRI-Nude Foxn1 mice
# Experimental: FIG. 8. […] 3 million A2780 cells were injected into mice. When tumors generated by A2780 reached an average volume of 200 mm^3, mice were randomized into 4 groups. Mice were treated with PBS, or 15 mg/kg NTSp27-7.4 every other day and/or with cisplatin 1 mg/kg day at 1, 3, 5, and 7 days. Results are the mean of 8 to 12 mice performed in two different independent experiments.
# A2780 cells (3×10^6) cells were combined with […] and 50 μl […]® (a gelatinous protein mixture), then injected subcutaneously into the right hind leg of 4 week old female NMRI-Nude Foxn1 mice. Treatment started when tumors reached approximately 200 mm3. Tumor volume was calculated every two days by using the following equation: tumor volume (mm3)=4/3×π×(length/2)×(width/2)×(height/2). After treatment, the mice were sacrificed and tumors were fixed in formalin.
# R-SI NTSR1 cells [1] = test: cisplatin test, R-SI NTSR1 tumor xenograft; type: in vivo, NMRI nu/nu mice
# Experimental: (§1) FIG. 6. […] A) LNM-R or R-SI NTSR1 cells (LNM-R expressing sh-RNA for NTSR1) were injected into the left and the right flanks of the mice, respectively; Mice were treated with PBS, or 15 mg/kg NTSp27-7.4 every other day and/or with cisplatin 1 mg/kg day 1, 3, 5, 7, 15, 17, and 19. At day one, 9 and 8 mice were randomized for the size of the LNM-R tumors; reaching approximately 95 mm3 on average. Mice were treated every other day and measured every day. B) Tumor growth rate from day one generated by R-SI NTSR1 cells (right flank).
# (§2) Cisplatin test, 1×10^6 LNM-R cells and 1×10^6R-SI NTSR1 were subcutaneously inoculated in NMRI nu/nu mice, LNM-R in the left flank and R-SI NTSR1 in the right flank. When tumors generated by LNM-R reached an average volume of 95 mm^3, mice were randomized in 5 groups of 8 to 10 mice. Group 1 was administered with PBS, group 2 with antibody NTSp27-7.4 (i.p. every other day, 15 mg/kg) for total of 13 times and group 3 with mouse IgG (i.p. every other day, 15 mg/kg). Group 4 was administered with PBS and cisplatin (1 mg/kg at day 1,3 5 7, 15, 17, and 19) and groups 5 with antibody NTSp27-7.4 (i.p. every other day, 15 mg/kg) and cisplatin (1 mg/kg at day 1,3 5 7, 15, 17, and 19). The volume of tumor was measured every other day.
# LNM-R cells [2] = test: cisplatin test, LNM-R tumor xenograft; type: in vivo, NMRI nu/nu mice; conditions: for day the experiment was stopped because of the large size of the tumors: control group stopped after 21
# Experimental: as §1, §2
# MDA-MB 231 cells = test: MDA-MB 231 breast cancer tumor xenograft; type: in vivo, NMRI nu/nu mice; conditions: 15 mg/kg i.p. every other day
# Experimental: (§3) FIG. 5. NTSp27-7.4 inhibits experimental tumor growth generated by breast cancer cell lines. Tumor growth generated by MDA-MB 231 cells (left flank) (A), and MDA Si2 cells (right flank) (B), and treated for 24 days with PBS, or 15 mg/kg […]. At day one, 7, and 6 mice were randomized for the size of MDA-MB231 tumors size; reaching approximately 50 mm3. Mice were treated and measured every other day.
# (§4) 3×10^6 MDA-MB 231 cells and 3×10^6 MDA si2 were subcutaneously inoculated in 100 μl of […]® (a gelatinous protein mixture) the left flank and the right flank of the NMRI nu/nu mice, respectively. When tumors generated by MDA reached an average volume of 50 mm^3, mice were randomized in 2 groups, then administered antibody NTSpP27-7.4 (i.p. every other day, 15 mg/kg) for total 12 times. PBS was used as the vehicle control.
# [3] = system: Hep 3B, HepR1a, and HepR2b cells; test: collagen type 1 invasion assay of hepatocellular carcinoma cells; type: cell-based; conditions: Hep-R1a and Hep-R1b; 3.75 μg/ml purified antibody
# Experimental: FIG. 3. […] A) Migration in a collagen 1 invasion assay of Hep 3B, HepR1a, and HepR2b cells. Results represent the mean±SEM of 3 experiments. Results are expressed as a % on invasive cells of control cells, Hep3B. […] B) Migration in a collagen type 1 invasion assay of Hep 3B, HepR1a, and HepR2b cells in a presence of 3.75 μg/ml of purified NTSp27-7.4 or mouse IgG. Results represent the mean±SEM of 3 experiments. Results are expressed as a % on invasive cells of respective control cells.
# (§5) The cell culture insert (8 μm, Beckton Dickinson®) was coated with type I collagen (100 μl/well, 4×10^2 μg/ml, Sigma®) at 37° C. 24 h before the assay. 1 million MCF, NTS-h, Hep 3B, HepR1a, and HepR2b cells were seeded in the insert with 250 μl of serum free medium in presence or absence of 7 μg antibodies NTSp27-7.4. Outside the insert, 750 μl medium with 10% FCS was added in the well as chemoattractant. After 48 h of incubation, the non-invading cells and collagen are removed from the upper surface of the membrane by scrubbing with a cotton swab. Invading cells (those adhering to the bottom surface of the membrane) were fixed and stained with the Kwif diff stain kit(Thermo®) and the number of stained cells were counted with an inverted microscope at 200× magnification.
# [4] = system: MCF-7 cell overexpressing NTS; test: invasion test on type I collagen of MCF-7 cells overexpressing NTS (NTS-h); type: cell-based; conditions: NTS-overexpressing clones vs MCF-7; EGF 100 ng/mL; 7 μg antibody
# Experimental: The experiment was repeated twice.
# as §5
# LNM-R cells [5] = test: LNM-R lung cancer tumor xenograft; type: in vivo, NMRI nu/nu mice; conditions: 15 mg/kg i.p. every other day
# Experimental: (§6) FIG. 4. NTSp27-7.4 inhibits experimental tumor growth generated by lung cancer cell lines. A) LNM-R or R-SI NTSR1 cells (LNM-R expressing sh-RNA for NTSR1) were injected into the left and the right flank of the mice, respectively. Here is shown an example of a mouse from each group after 15 days of treatment. B) Tumor growth generated by LNM-R cells (left flank) xenografted into nude mice and treated for 15 days with PBS, or 15 mg/kg NTSp27-7.4. At day one, 10, and 8 mice were randomized on LNM-R tumors size reaching approximately 40 mm3 for control and NTSp27-7.4 group, respectively. Mice were treated every other day and measured every day. C) Tumor growth generated by R-SI NTSR1 cells (right flank) xenografted into the same mice. D and E) Tumor growth rate from day one generated by LNM-R cells (left flank) and R-SI NTSR1 cells (right flank).
# (§7) 1×10^6 LNM-R cells and 1×10^6R-SI NTSR1 were subcutaneously inoculated in NMRI nu/nu mice, LNM-R in the left flank and R-SI NTSR1 in the right flank. When tumors generated by LNM-R reached an average volume of 40 mm^3, mice were randomized in 2 groups, then administered antibody NTSpP27-7.4 (i.p. every other day, 15 mg/kg) for total 8 times. PBS was used as the vehicle control. The volume of tumor was measured daily.
# R-SI NTSR1 cells [6] = test: R-SI NTSR1 tumor xenograft (same mice, right flank); type: in vivo, NMRI nu/nu mice; conditions: non-expressing NTSR1 tumors, 15 mg/kg
# Experimental: as §6, §7
# MDA si2 cells = test: MDA Si2 tumor xenograft (same mice, right flank); type: in vivo, NMRI nu/nu mice; conditions: MDA Si2 tumors (NTSR1-)
# Experimental: as §3, §4
Molecule,"A2780 tumor growth rates as compared to PBS treated mice (A2780 cells; cisplatin 1 mg/kg at 1, 3, 5, and 7 days)","R-SI NTSR1 tumor size (R-SI NTSR1 cells [1]; cisplatin 1 mg/kg, growth ratio to D1)","LNM-R tumor growth rate as compared to PBS treated mice (LNM-R cells [2]; cisplatin 1 mg/kg day 1,3,5,7,15,17,19, IgG 15 mg/kg every other day)",day the experiment was stopped because of the large size of the tumors (LNM-R cells [2]) [days],MDA-MB231 tumor growth as compared to PBS treated animals (MDA-MB 231 cells; 24 days),tumor growth rate from D1 (MDA-MB 231 cells; PBS 4.4±0.33) [fold],tumor doubling time after 24 days of treatment (MDA-MB 231 cells; control 11.63±1) [days],invasive rate of the cells expressing NTS and NTSR1 [3],induction of invasiveness induced or not by EGF [4],"A2780 tumor size (A2780 cells; antibody 15 mg/kg every other day, with or without cisplatin 1 mg/kg, PBS 2062±371.5, p=0.054 vs PBS, p=0.0058 vs cisplatin) [mm^3]","tumor size smaller as compared to controls (LNM-R cells [5]; 15 days, vs PBS) [times]",tumor growth from D1 (LNM-R cells [5]; PBS 24.68±4.05) [fold],tumor doubling time after 16 days of treatment (LNM-R cells [5]; control 3.43±0.34) [days],R-SI NTSR1 tumor growth rate (R-SI NTSR1 cells [1]; combined treatment of NTSp27-7.4 with cisplatin),size of the tumor and growth rate vs PBS (R-SI NTSR1 cells [6]),"LNM-R tumor size (LNM-R cells [2]; antibody 15 mg/kg every other day, with or without cisplatin 1 mg/kg)","tumor sizes, growth rate and doubling time vs PBS (MDA si2 cells)"
"N.N.[Cl][Pt][Cl] [cisplatin, reference compound]",slightly but not significantly altered,decreased,not altered,23,,,,,,,,,,,,,
B1,,,,25,strong reduction,1.5±0.1,52.8 ± 17.6,reduced,inhibited,1280±262.0,2.6,8.22±1.84,5.11 ± 0.38,do not change,not different,smaller,no difference
